# From patent US10947270B2, “Targeted prodrug cytosine deaminase fusion carrier and application thereof” (National Yang-Ming University, priority 2015, dated 2021)
# B1: yCD: yeast cytosine deaminase (yCD) (SEQ ID NO: 1), recombinant protein without target molecule (protein)
# chain: MVVTGGMASKWDQKGMDIAYEEAALGYKEGGVPIGGCLINNKDGSVLGRGHNMRFQKGSATLHGEISTLENCGRLEGKVYKDTTLYTTLSPCDMCTGAIIMYGIPRCVVGENVNFKSKGEKYLQTRGHEVVVVDDERCKKIMKQFIDERPQDWFEDIGELEHHHHHH
# modifications: yCD
# Tests used:
# [1] = Enzyme kinetic analysis of EcCD series fusion proteins, substrate 5-FC; assay type: biochemical
# Description: FIGS. 11A-11D show the activity and kinetics analysis of EcCD series fusion protein enzymes, and the EcCD series proteins are combined with 5-FC at different concentrations for reaction. Respectively calculate the 5-FU formation reaction rate shown in FIG. 11A, 5-FC consumption reaction rate shown in FIG. 10B, uracil formation reaction rate shown in FIG. 10C and cytosine consumption reaction rate shown in FIG. 10D, substitute Michaelis-Menten formula, and calculate the base mass (Kcat) and Km value catalyzed by each mol enzyme in unit time.
# [2] = test system: HUVEC, U87MG and MCF-7 cells; assay: Specific binding assay of yCD series recombinant protein and cell, statement for the three cells; assay type: cell-based, human
# Experimental: FIG. 5A, FIG. 5B, and FIG. 5C are respectively represented HUVEC cells, U87MG cells, MCF-7 cells seeded in 96-well plates for 24 hours, and then RGD4C-yCD, yCD, RGD4C-yCD/UPRT and yCD/UPRT with different concentrations are added for cells binding assay. After reacted with anti-His-HRP antibody and TMB substrate, ELISA reader (OD450 nm) is used to detect the amount of recombinant protein bound to the cells, and the binding curve is drawn. The nonlinear curve of the prism software is used to make a diagram and calculate the dissociation constant (Kd).
# The anti-His6-Tag-HRP antibody and TMB show the color reagent to detect the amount of recombinant protein bound to the cell, then the dissociation constant Kd value of the recombinant protein and the integrin αvβ3 receptor is calculated and a binding curve is drawn. […] The cell binding ability of RGD4C-yCD for HUVEC and U87MG are about 7.7 folds and 6.8 folds higher than MCF-7 respectively. The cell binding ability of RGD4C-yCD/UPRT for HUVEC and U87MG are about 6.9 folds and 5.8 folds higher than MCF-7 respectively. […] It is shown that RGD4C-yCD and RGD4C-yCD/UPRT are specially bound with integrin αvβ3 through RGD4C sequence.
# [3] = Enzyme stability of EcCD series fusion protein and yCD protein in FBS or transferrin; assay type: in vitro ADME; conditions: 37° C.; for enzyme activity: 24 hours
# Experimental: FIGS. 12A-12C show an enzyme stability analysis of EcCD series fusion protein and yCD protein.
# Previous literature reports indicate that the thermostability of E. coli cytosine deaminase (EcCD) is better than that of yCD. […] In order to simulate the environment of the protein in the cell killing test, the EcCD series fusion protein and the yCD protein are cultured in 10% FBS at 37° C. for 0, 1, 2, 4, 24 hours, and then determine the enzyme kinetics. It can be observed from the results that the yCD protein is cultured in 10% FBS for 1 hour, the enzyme activity is reduced to 80%, and when cultured for 2 and 4 hours, the enzyme activity is reduced to 50% and 20%, respectively, and the enzyme activity is lost after culturing for 24 hours, while the EcCD series fusion protein is similar to the culture in 100% FBS, which can maintain the original enzyme activity (see FIG. 12B). The literature points out that the metal ion of the enzyme catalytic center will affect the stability of the enzyme. In the yCD protein involved in the enzyme reaction, the metal ion of the enzyme catalytic center has a considerable relationship with the enzyme activity. The protein associated with transporting metal ions in serum is transferrin. It is speculated that transferrin may be related to the enzyme activity of yCD protein. Therefore, the EcCD series fusion protein and yCD protein are co-cultured respectively with transferrin at a concentration of 3 mg/ml (normal concentration 2.1-3.4 mg/mL) at 37° C. for 0, 1, 2, 4, 24 hours, then determine the enzyme kinetics (see FIG. 12C), it is known from the results that the longer the yCD protein is cultured in the transferrin, the lower the enzyme activity will be. […] This trend is similar to the culture at 10% in FBS. It is speculated that the factor of reducing the activity of yCD protein in FBS has a great relationship with transferrin. The stability of yCD protein in FBS is poor, and the stability of EcCD series fusion protein is better, so the industrial use of EcCD series fusion protein in both sexual and therapeutic applications is better than that of yCD protein, and it is also confirmed that the mutation of RGD4C peptide and D314A will not affect the enzyme stability of EcCD protein.
molecule,measurement,setting,value
B1,Kcat,[1]; 5-FC consumption (Table 5),48.5 ± 1.3 s⁻¹
same,Km,[1]; 5-FC consumption (Table 5),1000 ± 100 µM
same,Kcat,[1]; 5-FU generation,47.2 ± 0.9 s⁻¹
same,Km,[1]; 5-FU generation,1000 ± 100 µM
same,binding to the three cells,[2],weak binding
same,enzyme activity,[3]; 3 mg/ml transferrin,close to the loss of activity
same,enzyme activity (Kcat/Km relative to 0 hours),"[3]; 10% FBS, 1 hour",80%
same,enzyme activity (Kcat/Km relative to 0 hours),"[3]; 10% FBS, 2 hours",50%
same,enzyme activity (Kcat/Km relative to 0 hours),"[3]; 10% FBS, 4 hours",20%
same,enzyme activity,[3]; 10% FBS,lost
